Source: patent US20190201542A1 (AbbVie / Abbott, published 2019)

T1: human DLL3 (human, UniProt Q9NYJ7 27-492, limits assumed)
T1 construct: also called hDLL3; DLL3 protein
T1 sequence: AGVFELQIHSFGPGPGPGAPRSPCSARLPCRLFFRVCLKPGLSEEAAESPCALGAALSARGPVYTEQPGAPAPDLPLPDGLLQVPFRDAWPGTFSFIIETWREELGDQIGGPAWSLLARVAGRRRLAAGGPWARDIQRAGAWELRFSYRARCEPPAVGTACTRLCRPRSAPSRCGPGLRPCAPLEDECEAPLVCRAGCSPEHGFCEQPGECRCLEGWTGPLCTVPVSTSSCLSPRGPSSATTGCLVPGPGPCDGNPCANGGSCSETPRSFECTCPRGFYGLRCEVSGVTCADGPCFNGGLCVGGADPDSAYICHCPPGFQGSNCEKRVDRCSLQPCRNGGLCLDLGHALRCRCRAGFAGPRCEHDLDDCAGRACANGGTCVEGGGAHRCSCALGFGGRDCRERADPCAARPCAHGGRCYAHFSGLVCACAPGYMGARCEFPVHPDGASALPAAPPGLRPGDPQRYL

B1: SC16.84 (antibody, V domains shown)
VH: EVQLQQSGPELVKPGASMKISCKASGYSFTGYTMNWVKQSHGKNLEWIGLINPYNGGTTYNQKFKGKATLTVDKSSSTAYMELLSLTSEDSAVYYCALGYYGNYRRYFDVWGAGTTVTVSS
VL: DIQMTQSPSSLSASLGGKVTITCKASQDIKKYIAWYQHKPGKGPRLLIHYTSTLEPGIPSRFSGSGSGRDYSFSISNLEPEDIATYYCLQYDILWTFGGGTKLEIK
notes: murine mAb
B2: SC16.8 (antibody, V domains shown)
VH: QAQLQQSGAELVRPGTSVKVSCKASGYAFTNYLIEWVKQRPGQGLEWIGVINPGTGGTNYNENFKGKATLTADKSSSTAYMQLSSLTSDDSAVYFCARSPYDYHEGAMDYWGQGTSVTVSS
VL: EIQMTQSPSSMSASLGDRITITCQATQDIVKNLNWYQQKPGKPPSFLIYYAIELAEGVPSRFSGSGSGSDYSLTISNLESEDFADYYCLQFYEFPFTFGAGTKLELK
notes: murine mAb
B3: SC16.107 (antibody, V domains shown)
VH: EVQLQQSGPELVKPGASVKMSCKASGYTFTNYVMHWVKQKPGQGLEWIGYINPYNDGTKYNEKFKGKATLTSDKSSTTAYMALSSLTSEDSAVYYCAVAYYSNWGFAYWGQGTLVTVSA
VL: DIVMTQSHKFMSTSVGDRVSITCKASQDVNTAVGWYQQKPGQSPKLLIYSASYRYTGVPDRFTGSGSGTDFTFTISSVQAEDLAVYYCQQHYSSPYTFGGGTKVEIK
notes: murine mAb
B4: SC16.103 (antibody, V domains shown)
VH: QVTLKESGPGILKPSQTLSLTCSFSGFSLSTSGMGIGWIRQPSGKGLEWLAHIWWDDDKYYNPSLKSQLTISKDSSRNQVFLKITSVDTADTATYYCARRGTAYYFDYWGQGTTLTVSS
VL: DIVLTQSPASLAVSLGQRATISCRASKSVSTSGYSYMHWYQQKPGQPPKLLIYLASNLESGVPARFSGSGSGTDFTLNIHPVEEEDAATYYCQHSRELPLTFGAGTKLELK
notes: murine mAb
B5: SC16.105 (antibody, V domains shown)
VH: QVQLQQPGAELVKPGASVKLSCKASGYTFTSYWMHWVKQRPGQGLEWIGVINPSNGRTNYNEKFKSKATLTVDKSSSTAYMQLSSLTSEDSAVYYCARRRELGTLYAMDYWGQGTSVTVSS
VL: DIVMTQSHKFMSTSVGDRVSITCKASQDVGTAVAWYQQKPGQSPKLLIYWASIRHTGVPDRFTGSGSGTDFTLTISNVQSEDLADYFCQQYSSYPLTFGAGTKLELK
notes: murine mAb
B6: SC16.88 (antibody, V domains shown)
VH: QVQLQQSGAELARPGASVKLSCKASGYTCTSYWMQWVKQRPGQGLEWIGAIYPGDGDTRYTQKFKGKATLTADKSSSTAYMQLSSLASEDSAVYYCARGRRTEAWFAYWGQGTLVTVSA
VL: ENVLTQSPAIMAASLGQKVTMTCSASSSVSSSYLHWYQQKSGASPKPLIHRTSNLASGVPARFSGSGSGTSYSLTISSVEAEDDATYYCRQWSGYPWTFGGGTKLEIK
notes: murine mAb
B7: SC16.101 (antibody, V domains shown)
VL: QIVLTQSPAIMSASLGERVTMTCTASSSVSSSYLHWYQQKPGSSPKLWIYSTSNLASGVPARFSGSESGTSYSLTISNMEAEDAATYYCHQYHRSPFTFGSGTKLEIK
V domain: QVTLKESGPGILQPSQTLSLTCSFSGFSLSTSGMGVGWIRQPSGKGLEWLAHIWWDDVKRYNPALKSRLTISKDASSSQVFLKIASVDTAETATYYCAHILDRAYYFDYWGQGTTLTVTS
notes: murine mAb
B8: SC16.104 (antibody, V domains shown)
VH: QVQLKESGPDLVQPSQTLSLTCTVSGFSLTFYGVHWVRQPPGKGLEWVGTMGWDDKKYYNSALKSRLSISRDTSKNQVFLKLSSLQTEDTAMYYCTRGGTGFDYWGQGTTLTVSS
VL: QIVLSQSPAILSASPGEKVTMTCRASSSVSYIHWYRQKPGSSPKPWIYATSNLASGVPARFSGSGSGTSYSLTISRVEAEDAATYYCQQWSSNPPTFGAGTKLELK
notes: murine mAb
B9: SC16.106 (antibody, V domains shown)
VH: QVQLKQSGPGLVAPSQSLFITCTVSGFSLTSYEINWVRQPPGKGLEWLGVIWTGGSTNYNSALISRLSISKDNSKSLVFLKMNSLQTDDTAIYYCVRGVYAMDYWGQGTSVTVSS
VL: DIKMTQSPSSMYASLGERVTITCKASQDINSYLSWFQQKPGKSPKTLIYRANRLVDGVPSRFSGSGSGQDYSLTISSLEYEDMGIYYCLQYDEFPFTFGSGTKLEIK
notes: murine mAb

Target: T1, human DLL3
Assay: screen on immobilized hDLL3 or h293-hDLL3 cells
Method in brief: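 Solid-phase ELISA on DLL3-His (0.5 μg/ml coating), developed with HRP anti-mouse IgG and TMB and read at OD 450, was one screen for supernatants of single-cell hybridomas from human DLL3-immunized mice taken after 10 days in culture. Flow-cytometry binding counted as positive only above the control.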

Binding result, binds:
B1
B2
B3
B4
B5
B6
B7
B8
B9
